US20130344125A1, “DRUG DELIVERY DEVICE” (priority 2010, published 2013)
Where no end group is shown, it is not given here.

Assay: Particle size and size distribution of nano-lipobubbles by dynamic light scattering (Zetasizer NanoZS)
Format: physicochemical
Conditions: 25° C., deionized water, extruded through 0.22 μm filter
Method: Particle size and size distribution of synthetic peptide ligands, non-targeted nano-lipobubbles and targeted nano-lipobubbles were analyzed by a Zetasizer NanoZS instrument (Malvern Instruments (Pty) Ltd., Worcestershire, UK) at 25° C. Samples were suspended in deionized water, and then extruded through a 0.22 μm pore size polycarbonate membrane filter prior to analysis. Each analysis was performed in triplicate.
The physicochemical properties of the targeted nano-lipobubbles in terms of size distribution and zeta-potential were examined using the standard method of dynamic light scattering measurement (Zetasizer NanoZS, Malvern Instrument). […] The diameter of synthetic peptide ligand (KVLFLS 9 SEQ ID NO: 2)) alone was in the range of 366±41 nm. When 1 mol % of the linear synthetic peptide ligand incorporated or coupled with circular non-targeted nano-lipobubbles to generate targeted nano-lipobubbles, the size distribution increased from 129 nm to 270 nm when it was compared with non-targeted nano-lipobubbles. This confirms the successfully incorporation of the synthetic peptide ligand on the surface of non-targeted nano-lipobubbles. The overall zeta potential or surface charge of the targeted nano-lipobubbles was −29 mV.

KVLFLS (KVLFLS-NH2) [Synthetic 6 amino acid peptide ligand from human apolipoprotein A-1 targeting the SEC receptor]
diameter (size distribution): 366±41 nm
